Test results from the RNAGym collection of RNA variant scans (doi:10.1021/acssynbio.7b00057).

B1: Pistol ribozyme (parent)
chain: GGGUCGUUGUUCCAUAAUCGCGUGGAUAUGGCACGCAAGUUUCUACCGGGCACCGUAAAUGUCCGACUGGAGCCGUUCGGGCGGCUAUAAACAGACCUCAGGCCCGAAGCGUGGCGGCACCUGCCGCCGGUGGUAAAAAAGAUCGGAAGAGCACACGUCU

Variants of: B1
Assay: aptazyme ON/OFF ratio, guanine; higher = stronger switching; co-transcriptional cleavage with and without guanine

Row | Variant | aptazyme ON/OFF ratio
1 | U7A U10G U11G C12U C13A | 1.33
2 | U7A U10G U11G C12U C13U | 1.2
3 | U7A U10G U11G C12U C13G | 1.23
4 | U7A U11C C12G C13A | 1.3
5 | U7A U11C C12G C13G | 1.16
6 | U7A U11C C12G C13U | 1.23
7 | U7C G9A U10A U11G C12A C13A | 1.08
8 | U7C G9A U10A U11G C12A C13U | 1.15
9 | U7C G9A U10A U11G C12A C13G | 1.11
10 | U7A U11G C12G C13A | 1.13
11 | U7A U11G C12G C13U | 1.23
12 | U7A U11G C12G C13G | 1.42
13 | U7A U11G C13G | 1.05
14 | U7A U11G C13A | 1.03
15 | U7A U11G C13U | 1.04
16 | U7C C13U | 1.18
17 | U7C C13G | 1.05
18 | U7C C13A | 1.14
19 | U7A U10G U11G C12G | 1.45
20 | U7A U10G U11G C12A | 1.29
21 | U7A U10G U11G C12U | 1.28
22 | U7C G9A C12G | 1.14
23 | U7C G9A C12A | 1.33
24 | U7C G9A C12U | 1.16

Row | Variant | aptazyme ON/OFF ratio
25 | U7A U11A C12U C13A | 1.26
26 | U7A U11A C12U C13U | 1.31
27 | U7A U11A C12U C13G | 1.36
28 | U7A U11A C12A C13G | 1.26
29 | U7A U11A C12A C13A | 1.3
30 | U7A U11A C12A C13U | 1.41
31 | U7C | 1.31
32 | U7A U11G C12G | 1.27
33 | U7A U11G C12A | 1.16
34 | U7A U11G C12U | 1.22
35 | U7C C12A | 1.61
36 | U7C C12U | 1.73
37 | U7C C12G | 1.85
38 | U7C G9A U10A U11A C12U | 1.27
39 | U7C G9A U10A U11A C12A | 1.24
40 | U7C G9A U10A U11A C12G | 1.2
41 | U7A U10G U11G C13G | 1.16
42 | U7A U10G U11G C13A | 1.12
43 | U7A U10G U11G C13U | 1.27
44 | U7A U10G U11G C12G C13G | 1.28
45 | U7A U10G U11G C12G C13U | 1.22
46 | U7A U10G U11G C12G C13A | 1.11
47 | U7C G9A U10A U11A | 1.19
48 | U7C G9A U10A U11C | 1.09

Row | Variant | aptazyme ON/OFF ratio
49 | U7C G9A U10A U11G | 1.27
50 | U7C G9A U10A U11A C13U | 1.16
51 | U7C G9A U10A U11A C13A | 1.08
52 | U7C G9A U10A U11A C13G | 1.04
53 | U7A U10G U11C C13G | 1.08
54 | U7A U10G U11C C13U | 1.05
55 | U7A U10G U11C C13A | 1.07
56 | U7C G9A U10A C12A C13U | 1.05
57 | U7C G9A U10A C12A C13A | 1.17
58 | U7C G9A U10A C12A C13G | 1.14
59 | U7C C12A C13U | 1.19
60 | U7C C12A C13A | 1.16
61 | U7C C12A C13G | 1.1
62 | U7A U11G | 1.17
63 | U7A U11A | 1.24
64 | U7A U11C | 1.29
65 | U7C G9A U10A U11A C12A C13A | 1.2
66 | U7C G9A U10A U11A C12A C13U | 1.29
67 | U7C G9A U10A U11A C12A C13G | 1.23
68 | U7A U10G U11C C12A | 1.76
69 | U7A U10G U11C C12U | 1.09
70 | U7A U10G U11C C12G | 1.64
71 | U7A U11G C12A C13A | 1.15
72 | U7A U11G C12A C13G | 1.25

Row | Variant | aptazyme ON/OFF ratio
73 | U7A U11G C12A C13U | 1.25
74 | U7C G9A U10A U11C C12U C13G | 1.05
75 | U7C G9A U10A U11C C12U C13U | 1.23
76 | U7C G9A U10A U11C C12U C13A | 1.24
77 | U7C G9A U10A | 1.88
78 | U7A U11A C13G | 1.16
79 | U7A U11A C13A | 1.13
80 | U7A U11A C13U | 1.13
81 | U7A U10G U11C C12A C13U | 1.2
82 | U7A U10G U11C C12A C13A | 1.33
83 | U7A U10G U11C C12A C13G | 1.12
84 | U7A U11C C12G | 1.08
85 | U7A U11C C12A | 1.39
86 | U7A U11C C12U | 1.43
87 | U7A U10G U11C C12G C13A | 1.13
88 | U7A U10G U11C C12G C13G | 1.11
89 | U7A U10G U11C C12G C13U | 1.34
90 | U7C G9A C12G C13A | 1.18
91 | U7C G9A C12G C13G | 1.2
92 | U7C G9A C12G C13U | 1.23
93 | U7C G9A | 1.17
94 | U7C G9A U10A C12U | 1.35
95 | U7C G9A U10A C12A | 1.15
96 | U7C G9A U10A C12G | 1.18

Row | Variant | aptazyme ON/OFF ratio
97 | U7C G9A C12U C13A | 1.22
98 | U7C G9A C12U C13U | 1.22
99 | U7C G9A C12U C13G | 1.18
100 | U7C G9A U10A U11C C12A | 1.13
101 | U7C G9A U10A U11C C12G | 1.35
102 | U7C G9A U10A U11C C12U | 1.07
103 | U7A U11C C12A C13U | 1.19
104 | U7A U11C C12A C13A | 1.35
105 | U7A U11C C12A C13G | 1.22
106 | U7C G9A U10A U11A C12G C13A | 1.17
107 | U7C G9A U10A U11A C12G C13U | 1.19
108 | U7C G9A U10A U11A C12G C13G | 1.22
109 | U7C G9A U10A U11C C12A C13U | 1.24
110 | U7C G9A U10A U11C C12A C13A | 1.1
111 | U7C G9A U10A U11C C12A C13G | 1.1
112 | U7A U11C C13G | 1.07
113 | U7A U11C C13A | 1.19
114 | U7A U11C C13U | 1.21
115 | U7A U10G U11C C12U C13A | 1.3
116 | U7A U10G U11C C12U C13U | 1.21
117 | U7A U10G U11C C12U C13G | 1.41
118 | U7C G9A C13G | 1.03
119 | U7C G9A C13U | 1.17
120 | U7C G9A C13A | 1.05

Row | Variant | aptazyme ON/OFF ratio
121 | U7C C12G C13G | 1.17
122 | U7C C12G C13A | 1.18
123 | U7C C12G C13U | 1.43
124 | U7C G9A U10A U11A C12U C13A | 1.18
125 | U7C G9A U10A U11A C12U C13U | 1.19
126 | U7C G9A U10A U11A C12U C13G | 1.25
127 | U7A U11C C12U C13A | 1.27
128 | U7A U11C C12U C13G | 1.38
129 | U7A U11C C12U C13U | 1.38
130 | U7C C12U C13G | 1.28
131 | U7C C12U C13U | 1.05
132 | U7C C12U C13A | 1.55
133 | U7A U11G C12U C13A | 1.15
134 | U7A U11G C12U C13U | 1.13
135 | U7A U11G C12U C13G | 1.06
136 | U7C G9A C12A C13U | 1.25
137 | U7C G9A C12A C13G | 1.11
138 | U7C G9A C12A C13A | 1.24
139 | U7A U11A C12G C13G | 1.14
140 | U7A U11A C12G C13A | 1.08
141 | U7A U11A C12G C13U | 1.24
142 | U7A U10G U11G C12A C13U | 1.22
143 | U7A U10G U11G C12A C13G | 1.16
144 | U7A U10G U11G C12A C13A | 1.19

Row | Variant | aptazyme ON/OFF ratio
145 | U7C G9A U10A C12U C13U | 1.25
146 | U7C G9A U10A C12U C13A | 1.16
147 | U7C G9A U10A C12U C13G | 1.2
148 | U7C G9A U10A C13G | 1.03
149 | U7C G9A U10A C13A | 1.23
150 | U7C G9A U10A C13U | 1.34
151 | U7A U10G U11C | 1.04
152 | U7A U10G U11G | 1.27
153 | U7C G9A U10A U11C C13G | 1.04
154 | U7C G9A U10A U11C C13A | 1.03
155 | U7C G9A U10A U11C C13U | 1.07
156 | U7C G9A U10A C12G C13G | 1.18
157 | U7C G9A U10A C12G C13A | 1.35
158 | U7C G9A U10A C12G C13U | 1.21
159 | U7C G9A U10A U11G C12G C13A | 1.12
160 | U7C G9A U10A U11C C12G C13U | 1.12
161 | U7C G9A U10A U11C C12G C13G | 1.46
162 | U7C G9A U10A U11C C12G C13A | 1.27
163 | U7C G9A U10A U11G C12G | 1.15
164 | U7C G9A U10A U11G C12A | 1.02
165 | U7A U11A C12G | 1.2
166 | U7A U11A C12U | 1.26
167 | U7A U11A C12A | 1.41
